Reference: US20140087995A1 (published 2014)
Numbered stars: 1 amine (or outer) side, 2 acyl side, 3 side chain; on linkers, the order of the positions; unused ones are H or OH. Bridge positions count the residues as written; N and C are the ends. Side chains are listed from the residue outwards. Ends that are not written are not given here. * marks the point of attachment. C20 diacid = O=C(O)CCCCCCCCCCCCCCCCCCC(=O)*; γGlu = O=C(O)[C@H](CCC(=O)[*:2])N[*:1]

T1: rat amylin receptor (rat calcitonin receptor + rat RAMP 3) (rat, UniProt P32214 25-516; Q9JJ73 23-147)
T1 construct: whole, on cells; Membranes of transiently transfected BHK tk'ts 13 cells; also called rAmylin-R; rat amylin 3(a) receptor
T1 sequence (looked up) 1: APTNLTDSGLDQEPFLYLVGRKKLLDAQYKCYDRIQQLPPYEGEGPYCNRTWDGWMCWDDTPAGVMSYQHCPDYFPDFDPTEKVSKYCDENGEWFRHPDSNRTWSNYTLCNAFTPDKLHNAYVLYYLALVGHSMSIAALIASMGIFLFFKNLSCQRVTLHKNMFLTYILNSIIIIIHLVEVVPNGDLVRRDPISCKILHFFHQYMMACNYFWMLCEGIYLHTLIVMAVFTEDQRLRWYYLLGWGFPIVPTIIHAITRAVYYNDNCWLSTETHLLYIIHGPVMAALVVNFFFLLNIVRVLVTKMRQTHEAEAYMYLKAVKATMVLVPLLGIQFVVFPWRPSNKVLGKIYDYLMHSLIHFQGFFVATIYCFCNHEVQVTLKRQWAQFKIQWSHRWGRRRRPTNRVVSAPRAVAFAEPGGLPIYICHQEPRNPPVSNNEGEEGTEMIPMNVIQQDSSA
T1 sequence (looked up) 2: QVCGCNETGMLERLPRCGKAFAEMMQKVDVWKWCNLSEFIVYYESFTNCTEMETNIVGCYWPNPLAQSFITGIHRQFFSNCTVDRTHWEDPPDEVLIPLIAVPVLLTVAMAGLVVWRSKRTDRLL

T2: human calcitonin receptor (human, UniProt P30988 25-474)
T2 construct: whole, on cells; Membranes of stably transfected cells; also called hCTR; hCT
T2 sequence (looked up): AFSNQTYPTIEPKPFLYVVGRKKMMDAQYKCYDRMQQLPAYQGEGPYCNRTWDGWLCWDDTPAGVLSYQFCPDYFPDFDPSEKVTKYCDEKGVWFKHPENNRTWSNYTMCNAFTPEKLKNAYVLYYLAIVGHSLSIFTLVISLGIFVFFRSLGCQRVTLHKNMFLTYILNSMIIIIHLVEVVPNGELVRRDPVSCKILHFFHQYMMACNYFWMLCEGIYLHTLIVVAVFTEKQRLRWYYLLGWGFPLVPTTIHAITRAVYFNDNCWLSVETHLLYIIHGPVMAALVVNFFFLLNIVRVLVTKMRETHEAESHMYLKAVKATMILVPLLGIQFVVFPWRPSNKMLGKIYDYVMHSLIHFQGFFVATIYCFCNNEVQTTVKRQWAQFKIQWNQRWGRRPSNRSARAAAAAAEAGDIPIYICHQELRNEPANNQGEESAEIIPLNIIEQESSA

T3: rat calcitonin receptor (rat, UniProt P32214 25-516)
T3 construct: whole, on cells; Membranes of transiently transfected BHK tk'ts 13 cells; also called rCTR; rat calcitonin (a) receptor
T3 sequence (looked up): T1 sequence (looked up) 1

B1: N^ε1-[(4S)-4-carboxy-4-(19-carboxynonadecanoylamino)butanoyl]-[His14,Arg17,Pro21,Pro27,Pro31,Pro34]-h-amylin (peptide)
peptide: K([γGlu-C20 diacid])CNTATCATQRLAHFLRHSSPNFGAIPSSTPVGPNTY-NH2
modifications: disulfide 2-7; N-terminus assumed
SMILES: CC[C@H](C)[C@H](NC(=O)[C@H](C)NC(=O)CNC(=O)[C@H](Cc1ccccc1)NC(=O)[C@H](CC(N)=O)NC(=O)[C@@H]1CCCN1C(=O)[C@H](CO)NC(=O)[C@H](CO)NC(=O)[C@H](Cc1c[nH]cn1)NC(=O)[C@H](CCCNC(=N)N)NC(=O)[C@H](CC(C)C)NC(=O)[C@H](Cc1ccccc1)NC(=O)[C@H](Cc1c[nH]cn1)NC(=O)[C@H](C)NC(=O)[C@H](CC(C)C)NC(=O)[C@H](CCCNC(=N)N)NC(=O)[C@H](CCC(N)=O)NC(=O)[C@@H](NC(=O)[C@H](C)NC(=O)[C@@H]1CSSC[C@H](NC(=O)[C@@H](N)CCCCNC(=O)CC[C@H](NC(=O)CCCCCCCCCCCCCCCCCCC(=O)O)C(=O)O)C(=O)N[C@@H](CC(N)=O)C(=O)N[C@@H]([C@@H](C)O)C(=O)N[C@@H](C)C(=O)N[C@@H]([C@@H](C)O)C(=O)N1)[C@@H](C)O)C(=O)N1CCC[C@H]1C(=O)N[C@@H](CO)C(=O)N[C@@H](CO)C(=O)N[C@H](C(=O)N1CCC[C@H]1C(=O)N[C@H](C(=O)NCC(=O)N1CCC[C@H]1C(=O)N[C@@H](CC(N)=O)C(=O)N[C@H](C(=O)N[C@@H](Cc1ccc(O)cc1)C(N)=O)[C@@H](C)O)C(C)C)[C@@H](C)O
notes: Synthetic acylated analogue of human amylin
B2: N^ε1-[(4S)-4-carboxy-4-[[(4S)-4-carboxy-4-(19-carboxynonadecanoylamino)butanoyl]amino]butanoyl]-[Asp14,Arg17,Pro21,Pro27,Pro34,Arg35]-h-amylin (peptide)
peptide: K([γGlu-γGlu-C20 diacid])CNTATCATQRLADFLRHSSPNFGAIPSSTNVGPRTY-NH2
modifications: disulfide 2-7
notes: Synthetic acylated analogue of human amylin; also called compound 130
B3: N^ε1-[(4S)-4-carboxy-4-[[(4S)-4-carboxy-4-(19-carboxynonadecanoylamino)butanoyl]amino]butanoyl]-[Glu14,Arg17,Pro21,Pro27,Arg34,Glu35]-h-amylin (peptide)
peptide: K([γGlu-γGlu-C20 diacid])CNTATCATQRLAEFLRHSSPNFGAIPSSTNVGRETY-NH2
modifications: disulfide 2-7; N-terminus assumed
SMILES: CC[C@H](C)[C@H](NC(=O)[C@H](C)NC(=O)CNC(=O)[C@H](Cc1ccccc1)NC(=O)[C@H](CC(N)=O)NC(=O)[C@@H]1CCCN1C(=O)[C@H](CO)NC(=O)[C@H](CO)NC(=O)[C@H](Cc1c[nH]cn1)NC(=O)[C@H](CCCNC(=N)N)NC(=O)[C@H](CC(C)C)NC(=O)[C@H](Cc1ccccc1)NC(=O)[C@H](CCC(=O)O)NC(=O)[C@H](C)NC(=O)[C@H](CC(C)C)NC(=O)[C@H](CCCNC(=N)N)NC(=O)[C@H](CCC(N)=O)NC(=O)[C@@H](NC(=O)[C@H](C)NC(=O)[C@@H]1CSSC[C@H](NC(=O)[C@@H](N)CCCCNC(=O)CC[C@H](NC(=O)CC[C@H](NC(=O)CCCCCCCCCCCCCCCCCCC(=O)O)C(=O)O)C(=O)O)C(=O)N[C@@H](CC(N)=O)C(=O)N[C@@H]([C@@H](C)O)C(=O)N[C@@H](C)C(=O)N[C@@H]([C@@H](C)O)C(=O)N1)[C@@H](C)O)C(=O)N1CCC[C@H]1C(=O)N[C@@H](CO)C(=O)N[C@@H](CO)C(=O)N[C@H](C(=O)N[C@@H](CC(N)=O)C(=O)N[C@H](C(=O)NCC(=O)N[C@@H](CCCNC(=N)N)C(=O)N[C@@H](CCC(=O)O)C(=O)N[C@H](C(=O)N[C@@H](Cc1ccc(O)cc1)C(N)=O)[C@@H](C)O)C(C)C)[C@@H](C)O
notes: as for B1
B4: N^ε1-[(4S)-4-carboxy-4-[[(4S)-4-carboxy-4-(19-carboxynonadecanoylamino)butanoyl]amino]butanoyl]-[Arg17,Pro21,Pro27,Pro31,Pro34,Arg35]-h-amylin (peptide)
peptide: K([γGlu-γGlu-C20 diacid])CNTATCATQRLANFLRHSSPNFGAIPSSTPVGPRTY-NH2
modifications: disulfide 2-7; N-terminus assumed
SMILES: CC[C@H](C)[C@H](NC(=O)[C@H](C)NC(=O)CNC(=O)[C@H](Cc1ccccc1)NC(=O)[C@H](CC(N)=O)NC(=O)[C@@H]1CCCN1C(=O)[C@H](CO)NC(=O)[C@H](CO)NC(=O)[C@H](Cc1c[nH]cn1)NC(=O)[C@H](CCCNC(=N)N)NC(=O)[C@H](CC(C)C)NC(=O)[C@H](Cc1ccccc1)NC(=O)[C@H](CC(N)=O)NC(=O)[C@H](C)NC(=O)[C@H](CC(C)C)NC(=O)[C@H](CCCNC(=N)N)NC(=O)[C@H](CCC(N)=O)NC(=O)[C@@H](NC(=O)[C@H](C)NC(=O)[C@@H]1CSSC[C@H](NC(=O)[C@@H](N)CCCCNC(=O)CC[C@H](NC(=O)CC[C@H](NC(=O)CCCCCCCCCCCCCCCCCCC(=O)O)C(=O)O)C(=O)O)C(=O)N[C@@H](CC(N)=O)C(=O)N[C@@H]([C@@H](C)O)C(=O)N[C@@H](C)C(=O)N[C@@H]([C@@H](C)O)C(=O)N1)[C@@H](C)O)C(=O)N1CCC[C@H]1C(=O)N[C@@H](CO)C(=O)N[C@@H](CO)C(=O)N[C@H](C(=O)N1CCC[C@H]1C(=O)N[C@H](C(=O)NCC(=O)N1CCC[C@H]1C(=O)N[C@@H](CCCNC(=N)N)C(=O)N[C@H](C(=O)N[C@@H](Cc1ccc(O)cc1)C(N)=O)[C@@H](C)O)C(C)C)[C@@H](C)O
notes: as for B1
B5: N^ε1-[(4S)-4-carboxy-4-[[(4S)-4-carboxy-4-(19-carboxynonadecanoylamino)butanoyl]amino]butanoyl]-[Glu14,Arg17,Pro21,Pro27,His34,Glu35]-h-amylin (peptide)
peptide: K([γGlu-γGlu-C20 diacid])CNTATCATQRLAEFLRHSSPNFGAIPSSTNVGHETY-NH2
modifications: disulfide 2-7; N-terminus assumed
SMILES: CC[C@H](C)[C@H](NC(=O)[C@H](C)NC(=O)CNC(=O)[C@H](Cc1ccccc1)NC(=O)[C@H](CC(N)=O)NC(=O)[C@@H]1CCCN1C(=O)[C@H](CO)NC(=O)[C@H](CO)NC(=O)[C@H](Cc1c[nH]cn1)NC(=O)[C@H](CCCNC(=N)N)NC(=O)[C@H](CC(C)C)NC(=O)[C@H](Cc1ccccc1)NC(=O)[C@H](CCC(=O)O)NC(=O)[C@H](C)NC(=O)[C@H](CC(C)C)NC(=O)[C@H](CCCNC(=N)N)NC(=O)[C@H](CCC(N)=O)NC(=O)[C@@H](NC(=O)[C@H](C)NC(=O)[C@@H]1CSSC[C@H](NC(=O)[C@@H](N)CCCCNC(=O)CC[C@H](NC(=O)CC[C@H](NC(=O)CCCCCCCCCCCCCCCCCCC(=O)O)C(=O)O)C(=O)O)C(=O)N[C@@H](CC(N)=O)C(=O)N[C@@H]([C@@H](C)O)C(=O)N[C@@H](C)C(=O)N[C@@H]([C@@H](C)O)C(=O)N1)[C@@H](C)O)C(=O)N1CCC[C@H]1C(=O)N[C@@H](CO)C(=O)N[C@@H](CO)C(=O)N[C@H](C(=O)N[C@@H](CC(N)=O)C(=O)N[C@H](C(=O)NCC(=O)N[C@@H](Cc1c[nH]cn1)C(=O)N[C@@H](CCC(=O)O)C(=O)N[C@H](C(=O)N[C@@H](Cc1ccc(O)cc1)C(N)=O)[C@@H](C)O)C(C)C)[C@@H](C)O
notes: as for B1
B6: N^ε1-[(4S)-4-carboxy-4-[[(4S)-4-carboxy-4-(19-carboxynonadecanoylamino)butanoyl]amino]butanoyl]-[Asp14,Arg17,Pro21,Pro27,Pro34,Glu35]-h-amylin (peptide)
peptide: K([γGlu-γGlu-C20 diacid])CNTATCATQRLADFLRHSSPNFGAIPSSTNVGPETY-NH2
modifications: disulfide 2-7
notes: as for B1

Molecular target: T1, rat amylin receptor (rat calcitonin …)
Assay: SPA competition with 125I-rat amylin on membranes of BHK tk'ts 13 cells with rat calcitonin receptor + rat RAMP3 (Assay VI)

IC50 | Binder
0.125 nM | B1
0.93 nM | B2
2.86 nM | B3
0.381 nM | B4
3.14 nM | B5
0.324 nM | B6

Molecular target: T2, human calcitonin receptor
Assay: ratio of IC50 on human calcitonin receptor to IC50 on human amylin receptor (reference m42), SPA competition
Summary of the method: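 Scintillation proximity competition binding on cell membranes at 35 ng/μL with SPA beads, in 50 mM Hepes pH 7.4, 1 mM CaCl2, 5 mM MgCl₂, 0.1% OA, 0.02% Tween20. Incubated 120 min at 25° C with shaking. IC₅₀ from one-site competition fit.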

Ratio hCT/hAmylin binding | Binder
24.8 | B1
280 | B2
14.7 | B3
48.6 | B4
29.1 | B5
49.8 | B6

Molecular target: T3, rat calcitonin receptor
Assay: ratio of IC50 on rat calcitonin receptor to IC50 on rat amylin receptor (reference m40)

Ratio rCT/rAmylin binding | Binder
72.4 | B1
240 | B2
158 | B3
137 | B4
159 | B5
98.5 | B6

Molecular target: T3, rat calcitonin receptor
Assay: SPA competition with 125I-calcitonin on membranes of BHK tk'ts 13 cells with rat calcitonin receptor (Assay VIII)

IC50 | Binder
9.05 nM | B1
223 nM | B2
452 nM | B3
52.4 nM | B4
498 nM | B5
31.9 nM | B6
